Assay results from the supplement of paper PMC9170038.

Legend:
MS2 coat protein [1] = assay: apparent KD of MS2 coat protein, switch ON state; designed switch direction (-1 OFF switch, 1 ON switch): 1; higher = weaker reporter binding; settings: FMN input: 0 or 200 uM; Eterna round: R93 (includes R88 designs)
Summary of the method: (§1)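 Designed RNA switches were transcribed on-chip from Illumina sequencing clusters and titrated with SNAP-549-labelled MS2 coat protein in twofold steps from 0.7 or 1.5 nM up to 3 µM. Each step lasted 0.8–1.5 h at first and 10–20 min by the end, in 100 mM Tris-HCl pH 7.5, 80 mM KCl and 4 mM MgCl2, without or with constant ligand. Apparent KD is the median, for each design, of fits to normalised cluster binding curves.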

MS2 coat protein [2] = assay: apparent KD of MS2 coat protein, switch OFF state (with FMN for OFF switches, without FMN for ON switches); designed switch direction (-1 OFF switch, 1 ON switch): 1; higher = weaker reporter binding; settings: FMN input: 0 or 200 uM; Eterna round: R93 (includes R88 designs)
Summary of the method: as §1

Row | Sequence | apparent KD of MS2 coat protein (MS2 coat protein [1]) | apparent KD of MS2 coat protein (MS2 coat protein [2])
1 | CAGCGCUGUCGAGAGGAUAUGCGGUGAUGGACAUGAGGAUCACCCAUGUAAGCGAUAGCAUUACGGCAGAAGGCUCUGCAGCUGC [Riaranzaes] | 18.7 nM | 69.6 nM
2 | AAACCACAUGAGGAUCACCCAUGUAGAAAUAUGGGAGGAUAUACAAACACGAAAGUGAAAGUAGAAGGCCUAAAAG [77%, Mat - Mod of Eli, 7] | 17.7 nM | 118 nM
3 | UAAAAACAUGAGGAUCACCCAUGUGAGAACAUGGGAGGAUAUACAAGGACGAAAGUCAAGGUAGAAGGCCUAAAAU [Mat - Same State 1 - Mod - D175] | 160 nM | 29.3 nM
4 | AAAAAACAUGAGGAUCACCCAUGUCCUCGGACGUGAGGAUAUGUACAGACUUCGGUCUGUACAGAAGGCACGUAAA [SS1 - 1042] | 492 nM | 402 nM
5 | GGUACUACAGAUCAGGAUAUGUUUGGGUAAACAUGAGGAUCACCCAUGUGUGCCCGAUACACAGCACAGAAGGGAUAACGUGGGA [Ditia] | 16.2 nM | 21.4 nM
6 | AAAAUACAUGAGGAUCACCCAUGUGAAAAUAUGGGAGGAUAUACCGAAAAAAAAAAAACGGUAGAAGGCCCUAAAA [SS! 1 MT 6] | 17.9 nM | 41.6 nM
7 | AAAAAACAUGAGGAUCACCCAUGUCGAAAGACAUGAGGAUAUGUACAGACUUCGGUCUGUACAGAAGGCAUGUAAA [SS1 - 1016] | 104 nM | 813 nM
8 | GGAAGACAUGAGGAUCACCCAUGUGGGAUUAUGGGAGGAUAUACAAAGACGAGAGUCAGAGUAGAAGGCCUAGGAC [salish99-ss1-123(!)] | 31.1 nM | 61.4 nM
9 | UAAUAAUAAACCAAGGAUAUGGAGUUUCCAACAUGAGGAUCACCCAUGUUUUGCUUGUAAUCGAUCCAGAAGGUGGAGCCAAAUA [JR_SS002_Sub1006] | 35.6 nM | 68.4 nM
10 | AAUACACAUGAGGAUCACCCAUGUAGAAAGAAGGCAGGAUAUCAGAUCCACAUGUGAUAAUGAGAAGGGCCAAUAU [SS 1 Tesla 10] | 21.9 nM | 171 nM
11 | AUAUGAUCAUGUGAGGAUAUCCAUAAUAAAACAUGAGGAUCACCCAUGUAUAGAUACUAAUAAUGGGAGAAGGCACAUGAUCAAU [SS 2 M43] | 19.9 nM | 24 nM
12 | ACGAGGAAGAGAGAGGAUAUCCAAAGGAAAACAUGAGGAUCACCCAUGUAAAAGGUAGGAAAUUGGGAGAAGGCUCAAGAGAGAG [salish99-ss2-069] | 32.4 nM | 34.6 nM
13 | GAAAAACAUGAGGAUCACCCAUGUAGAAAUAUGGGAGGAUAUACAAAGACGAAAGUCAAAGUAGAAGGCCUAAGAG [Garnet 22] | 31.8 nM | 82.6 nM
14 | AAAAUAUAAAGGAAGGAUAUCCAAAGGACUACAUGAGGAUCACCCAUGUAAAGAAAGAAUAAAUGGGAGAAGGUCCAAAUAAUAA [Designing denovo 32] | 44 nM | 180 nM
15 | AACCAACAUGAGGAUCACCCAUGUCAACCCAAGGCAGGAUAUGCGAGAAUAACAAUGGGAGCAGAAGGGCCGACCU [ss1-3] | 40 nM | 53.4 nM
16 | GUAGACAUAGUUCAGGAUAUAGGAAUAGUCACAUGAGGAUCACCCAUGUGCAUUUAUAUGCGCACUUAGAAGGGAGGUAGUUAAC [Mat - Same state - Malcolm Mod - D121] | 26.3 nM | 25 nM
17 | AAUAAUUAUAUCGAGGAUAUCGGUAAUAAGACAUGAGGAUCACCCAUGUAAUAAGGUUAAAUAAACGAGAAGGCGAAGGGUGAAA [JR_SS002_Sub006] | 80.9 nM | 49.2 nM
18 | AAUAUAUUAAGUGAGGAUAUCGAGGAAAAAACAUGAGGAUCACCCAUGUGGGAAACAUGGUAGGGUGAGAAGGCACUUAAUAUAU [Samwise Clockwise 24 - Jieux - Same State 2] | 132 nM | 572 nM
19 | AAAAAACAUGAGGAUCACCCAUGUCAAAAGACGUGAGGAUAUGUACAGACUUCGGUCUGUACAGAAGGCAUGAAAA [SS1 - 1056] | 32 nM | 136 nM
20 | AACUAACAUGAGGAUCACCCAUGUUGCAGCGGUUGAGGAUAUGUGGGUGAAAAUAGCAUGGCAGAAGGCGAGUGUA [SameState1 Malc#25] | 68.8 nM | 52.2 nM
21 | AAGAGACAUGAGGAUCACCCAUGUAGGAUUAUGGGAGGAUAUACAAAGACGAGAGUCAGAGUAGAAGGCCUAGGAU [salish99-ss1-130(!)] | 21.5 nM | 59.9 nM
22 | AAGAAAGAAACAUAGGAUAUCAAGGAUAUAACAUGAGGAUCACCCAUGUAAAUACGAAAGUAUAAUGAGAAGGAUGGAUGAUCUUC [Meechl MS2 SS2] | 28.9 nM | 44.9 nM

Row | Sequence | apparent KD of MS2 coat protein (MS2 coat protein [1]) | apparent KD of MS2 coat protein (MS2 coat protein [2])
23 | AAAAUACAUGAGGAUCACCCAUGUGAGUCGAACGCAGGAUAUGCCCGUUGAAAAGGGCGGGCAGAAGGGUGCCGAA [SameState1-IV] | 34.4 nM | 61.7 nM
24 | AUAAAACAUGAGGAUCACCCAUGUAGCUAAAGCACAGGAUAUAGGAGUCCGAGCAGACAUCUAGAAGGGUGGAAAA [Veeslelein] | 57.5 nM | 88.6 nM
25 | GAAGACGUAGGAUAGGAUAUGUGAAUAAUUACAUGAGGAUCACCCAUGUCCAUUUAUAUGGGAACAUAGAAGGGUUUUCGUUAUC [SameState2 Malc#9] | 341 nM | 281 nM
26 | UCGUCCUCGUGCUAGGAUAUCCAUCGUAAAACAUGAGGAUCACCCAUGUAGAAAUGCGCCGACGAGGAGAAGGAGCGAUGUGGAU [Lazabima] | 14.5 nM | 18.5 nM
27 | GAAGACAUAGUUCAGGAUAUAGGAAUAGUCACAUGAGGAUCACCCAUGUGCAUUUAUAUGCGCACUUAGAAGGGAGGUAGUUAUC [SameState2 Malc#23] | 36 nM | 25 nM
28 | GAAAAACAUGAGGAUCACCCAUGUGAGAAUAUGGGAGGAUAUUCAAAGACGAGAGUCAAAGAAGAAGGCCUAAAAG [Mat - Same State 1 - Eli mod - 38] | 29.3 nM | 161 nM
29 | GGUACGGCUAGUCAGGAUAUCAGGCGUAAGACAUGAGGAUCACCCAUGUCCUAAGAACAGGUAACUGAGAAGGGACAGGGCGUCC [JR_SS002_Sub414] | 28.8 nM | 63.1 nM
30 | AAAACACAUGAGGAUCACCCAUGUAGAAAUACGGGAGGAUAUGCGAAAACGAAAGACAAAGUAGAAGGCCUAAAAG [saturn 8] | 35.9 nM | 69.8 nM
31 | AGAAUAAAAAGAGAGGAUAUCCAUAAGAAAACAUGAGGAUCACCCAUGUGAAAGAUAAUAAGAUGGGAGAAGGCUCAAAAUAAGA [Topaz 46] | 20.3 nM | 49.5 nM
32 | GUGGACAUAGUUCAGGAUAUAUGAAUAGUCACAUGAGGAUCACCCAUGUCCAUUUAUAUGGGCACAUAGAAGGGAGGUAGUUAAC [Mat - Same state - Malcolm Mod - D124] | 451 nM | 744 nM
33 | CGAAAGGAGAGAGAGGAUAUCCAAAGGAAAACAUGAGGAUCACCCAUGUAGAAGGUAGGAGAUUGGGAGAAGGCUCAAGAGAGAA [salish99-ss2-146] | 19.1 nM | 25 nM
34 | AACCGCGCUAUACAGGAUAUCACAAUAUCGACAUGAGGAUCACCCAUGUGACUGGCACCAGUCGGUGAGAAGGGUGAAGUGCGGC [Tilemage] | 149 nM | 238 nM
35 | AUUCCAAAUAGUCAGGAUAUCAGGAGUAAGACAUGAGGAUCACCCAUGUACUUAGUAAAAGUAACUGAGAAGGGACAGGGUGUAA [JR_SS002_Sub406] | 30 nM | 24.2 nM
36 | AAACCACAUGAGGAUCACCCAUGUAAAAAUAACGCAGGAUAUGGAAACACGAAAGUGAAACCAGAAGGGUGAAAAG [77%, Mat - Mod of Eli, 15] | 24.5 nM | 33 nM
37 | AAAAAACAUGAGGAUCACCCAUGUAAUACAACAUCAGGAUAUUGGUUUUACUAUGUAUUACAAGAAGGGAUGAAAA [Same State 1.3b (Same State 1 - Omei 2 )] | 181 nM | 92.4 nM
38 | AACAGACAUGAGGAUCACCCAUGUAGAAUUAUGGGAGGAUAUACAAAGACGAGAGUCAGAGUAGAAGGCCUAGGAC [salish99-ss1-163] | 20 nM | 71.2 nM
39 | AAUAUAUUAAGUGAGGAUAUCAAAGAAAAAACAUGAGGAUCACCCAUGUGGGAAACCUGGUCGGGUGAGAAGGCACUUAAUAUAU [Samwise Clockwise 28 - Jieux - Same State 2] | 31.3 nM | 314 nM
40 | AUGGUCAAGUGUGAGGAUAUCCAGGCUCCCACAUGAGGAUCACCCAUGUUUUAAAGAGCGUAAAGGGAGAAGGUACGAACGCCAC [Isorvere] | 15.4 nM | 21.9 nM
41 | AAUAAACAUGAGGAUCACCCAUGUAGAAAUAUGGGAGGAUAUACAAAGACGAAAGUCAAAGUAGAAGGCCUAAUAU [Mat - Same State 1 - Mod - D154] | 23.2 nM | 64.7 nM
42 | ACAAGACAUGAGGAUCACCCAUGUAAAGAAAACGCAGGAUAUGCAAAAAAAUUCAUGGGUGCAGAAGGGCGAAAAA [Default title] | 153 nM | 34.2 nM
43 | CUAAUUGCAUAUUAGGAUAUACACUGGGUGACAUGAGGAUCACCCAUGUAAAAGCACACUCGGUAGUAGAAGGAGUGUGCAAGUC [Iserso] | 36 nM | 19.1 nM
